B1: BTB/POZ domain-containing protein KCTD16 (Homo sapiens), Q68DU8 (parent)
chain: MALSGNCSRYYPREQGSAVPNSFPEVVELNVGGQVYFTRHSTLISIPHSLLWKMFSPKRDTANDLAKDSKGRFFIDRDGFLFRYILDYLRDRQVVLPDHFPEKGRLKREAEYFQLPDLVKLLTPDEIKQSPDEFCHSDFEDASQGSDTRICPPSSLLPADRKWGFITVGYRGSCTLGREGQADAKFRRVPRILVCGRISLAKEVFGETLNESRDPDRAPERYTSRFYLKFKHLERAFDMLSECGFHMVACNSSVTASFINQYTDDKIWSSYTEYVFYREPSRWSPSHCDCCCKNGKGDKEGESGTSCNDLSTSSCDSQSEASSPQETVICGPVTRQTNIQTLDRPIKKGPVQLIQQSEMRRKSDLLRTLTSGSRESNMSSKKKAVKEKLSIEEELEKCIQDFLKIKIPDRFPERKHPWQSELLRKYHL
partner: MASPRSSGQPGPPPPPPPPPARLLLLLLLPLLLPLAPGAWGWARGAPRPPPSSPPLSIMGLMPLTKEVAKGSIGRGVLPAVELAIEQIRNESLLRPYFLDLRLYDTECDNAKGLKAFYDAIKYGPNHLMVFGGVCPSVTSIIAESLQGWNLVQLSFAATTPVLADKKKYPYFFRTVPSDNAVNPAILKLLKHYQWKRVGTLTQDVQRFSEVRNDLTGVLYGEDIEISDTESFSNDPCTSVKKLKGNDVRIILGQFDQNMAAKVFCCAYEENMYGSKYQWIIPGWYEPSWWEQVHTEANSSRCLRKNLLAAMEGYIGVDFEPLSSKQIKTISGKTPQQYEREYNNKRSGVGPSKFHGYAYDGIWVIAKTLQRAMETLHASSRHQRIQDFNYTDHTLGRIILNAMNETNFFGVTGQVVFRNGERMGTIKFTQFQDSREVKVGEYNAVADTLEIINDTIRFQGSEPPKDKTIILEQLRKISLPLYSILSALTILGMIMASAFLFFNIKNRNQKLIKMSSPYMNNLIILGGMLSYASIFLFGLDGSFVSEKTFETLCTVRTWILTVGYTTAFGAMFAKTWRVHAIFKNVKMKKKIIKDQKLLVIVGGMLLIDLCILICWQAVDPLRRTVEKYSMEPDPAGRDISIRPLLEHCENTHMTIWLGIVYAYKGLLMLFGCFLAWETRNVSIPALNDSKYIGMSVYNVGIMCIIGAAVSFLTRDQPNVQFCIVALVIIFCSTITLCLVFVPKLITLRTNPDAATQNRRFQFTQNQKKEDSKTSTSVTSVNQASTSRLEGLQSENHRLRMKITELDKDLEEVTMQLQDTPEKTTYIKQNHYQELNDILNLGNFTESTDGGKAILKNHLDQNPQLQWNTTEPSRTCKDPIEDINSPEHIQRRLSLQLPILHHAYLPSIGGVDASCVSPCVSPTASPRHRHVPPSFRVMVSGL

Variants of: B1
Conditions: with gabr2_human GABBR2, O75899

effect of a mutation on the interaction | Variant
disrupting interaction strength | F80A

— IntAct's records for PubMed 30814734
